Results as given in paper PMC2248716.
Read-outs that look alike come from different tables or passages of the source.

Experiments:
Experiment in all cases: FRET or BRET
[1] = molecular target: NaV1.4-EYFP (UniProt P15390)
[2] = molecular target: NaV1.4-EYFP (UniProt P15390); remark: listed apart in the source
[3] = molecular target: NaV1.4-EYFP (UniProt P15390); remark: listed apart in the source
[4] = molecular target: NaV1.4-EYFP (UniProt P15390); remark: listed apart in the source
[5] = molecular target: NaV1.4_(IQ/AA)-EYFP (UniProt P15390)
[6] = molecular target: NaV1.4-EYFP (UniProt P15390); remark: listed apart in the source

FRET efficiency [1]: 25.4% | FRET efficiency [2]: 22.7% | FRET efficiency [3]: 10.3% | FRET ratio [3]: 2 | FRET efficiency [4]: 9.9% | FRET ratio [5]: < 1 | FRET efficiency [6]: 8.2% | FRET ratio [6]: > 1
Substance: ECFP-CaM (from UniProt P0DP23 1-149) (natural protein)
